# Experimental data: patent US20240368642A1, “COMPOSITIONS AND METHODS FOR PRODUCTION OF VALUE-ADDED CHEMICALS” (Solugen, Inc., priority 2021, published 2024)
# Key:
# [1] = test system: all three bacteria tested; experiment: Antimicrobial testing, statement for all three bacteria tested; assay type: cell-based
# Protocol: (§1) All three different heat incubated GDA samples were tested as antimicrobial agents with several different industrially relevant bacteria. The General Aerobic Bacteria isolated and used for this testing were identified as Pseudomonas aeruginosa and Enterobacter aggolomerans. Wild strain Sulfate Reducing Bacteria and Acid Producing Bacteria isolated from the produced fluids was also used. They were placed in a microtiter plate, where a high throughput test can be performed to determine MIC (minimum inhibitor concentration). Samples were tested at the following doses (1000, 500, 250, 125, 62.5, 31.2, 15.6, 7.8, 3.9, and 1.95ppm) and concentration was calculated based on the initial GDA concentration (15 w/v %).
# (§2) The antimicrobial testing results shown in FIG. 49 summarizes the MIC of each sample for different bacteria.
# [2] = test system: APB (Acid Producing Bacteria); experiment: Microtiter MIC study, acid producing bacteria; assay type: cell-based, Acid Producing Bacteria isolated from the produced fluids; details: 24 hours of incubation; concentration based on initial GDA concentration
# Protocol: as §1, §2
# [3] = test system: General Wild Strain Bacteria; experiment: Microtiter MIC study, general wild strain bacteria; assay type: cell-based, Pseudomonas aeruginosa and Enterobacter aggolomerans; details: 24 hours of incubation; concentration based on initial GDA concentration
# Protocol: as §1, §2
# [4] = Glucarate dehydratase reaction with gluconate or glucuronate as substrate; assay type: biochemical; details: 0.01% w/v GlucD, 10 mM substrate, pH 7.5, 24 hours
# Protocol: (§3) A 100 μL volume was prepared containing 0.01% w/v Escherichia coli glucarate dehydratase (GlucD), 10 mM substrate (glucarate, gluconate, or glucuronate), 50 mM potassium phosphate, pH 7.5, 5 mM MgSO4, and 100 mM NaCl. The reaction was allowed to proceed for 24 hours and consumption of glucaric acid was monitored via LCMS at 0, 5mins, 20 mins, 1 hr, 2 hrs, and 24 hours. Full conversion of glucarate was observed within 20 minutes. […] The reaction is schematized in FIG. 36 and the results are graphed in Figure
# [5] = Glucarate dehydratase reaction on glucarate monitored via LCMS; assay type: biochemical; details: pH 7.5
# Protocol: as §3
# To determine optimal enzyme loading, a 100 μL volume was prepared containing 0.001, 0.002, 0.005, or 0.01% w/v glucarate dehydratase (GlucD), 10% w/v glucarate, 50 mM potassium phosphate, pH 7.5, 5 mM MgSO4, and 100 mM NaCl. The reaction was allowed to proceed for 74 hours and formation of 4-deoxy-5-keoglucarate and consumption of glucarate was monitored via reverse phase LCMS. […] The reaction is schematized in FIG. 36 and the results are graphed in FIG. 40.
# [6] = Specific activity of pyranose oxidase (POX) enzymes; assay type: biochemical; details: Table 4; unit = 1 umol of substrate consumed min^−1
# From the text: POX is a flavin-dependent enzyme found in lignocellulose-degrading fungi that oxidizes glucose to 2-ketoglucose concomitantly with hydrogen peroxide formation. Recombinant Trametes hirsuita POX is currently used in the food industry for baking, providing some evidence that the enzyme can be produced at low cost. A unit is defined as 1 umol of substrate consumed min^−1. Based on an in-house empirical evaluation, the Irpex lacteus, Trametes multicolor, and Phanerochaete chrysosporium POXs have sufficient starting activity. This is presented graphically in FIG. 32 and Table 4.
# [7] = Table 4; previously characterized POX enzymes; cited from earlier work
molecule,measurement,setting,value
"Oc1ccc(O)c(O)c1O (single isomer, unassigned) [1,2,3,4-tetrahydroxybenzene]",antimicrobial activity (in words),[1],good antimicrobial activity
"O=CCCCC=O [Glutaraldehyde - 50%, Glutaraldehyde]",MIC,[2],500 µg/mL
same,MIC,[3],1000 µg/mL
GlucD: Escherichia coli glucarate dehydratase,reaction with gluconic or glucuronic acid as substrate,[4],No reaction was observed
same,time to full conversion of glucarate,"[5]; 0.005% enzyme, 10% w/v glucarate",≤ 24 h
same,time to full conversion of glucarate,"[5]; 0.01% w/v GlucD, 10 mM glucarate",≤ 0.333 h
Irpex lacteus: POX enzyme of Irpex lacteus,Specific Activity (in-house evaluation),[6],6.0 (in-house U mg^−1
same,Specific Activity (previously characterized),[7],"evaluation), 86 U mg^−1"
Trametes multicolor: POX enzyme of Trametes multicolor,Specific Activity (in-house evaluation),[6],6.8 (in-house U mg^−1
"Lyophyllum shimeji: POX enzyme of Lyophyllum shimeji (protein, UniProt Q75ZP8 1-618, looked up) Pyranose 2-oxidase: MSLSTEQMLRDYPRSMQINGQIPKNAIHETYGNDGVDVFIAGSGPIGATYAKLCVEAGLRVVMVEIGAADSFYAVNAEEGTAVPYVPGYHKKNEIEFQKDIDRFVNVIKGALQQVSVPVRNQNVPTLDPGAWSAPPGSSAISNGKNPHQREFENLSAEAVTRGVGGMSTHWTCSTPRIHPPMESLPGIGRPKLSNDPAEDDKEWNELYSEAERLIGTSTKEFDESIRHTLVLRSLQDAYKDRQRIFRPLPLACHRLKNAPEYVEWHSAENLFHSIYNDDKQKKLFTLLTNHRCTRLALTGGYEKKIGAAEVRNLLATRNPSSQLDSYIMAKVYVLASGAIGNPQILYNSGFSGLQVTPRNDSLIPNLGRYITEQPMAFCQIVLRQEFVDSVRDDPYGLPWWKEAVAQHIAKNPTDALPIPFRDPEPQVTTPFTEEHPWHTQIHRDAFSYGAVGPEVDSRVIVDLRWFGATDPEANNLLVFQNDVQDGYSMPQPTFRYRPSTASNVRARKMMADMCEVASNLGGYLPTSPPQFMDPGLALHLAGTTRIGFDKATTVADNNSLVWDFANLYVAGNGTIRTGFGENPTLTSMCHAIKSARSIINTLKGGTDGKNTGEHRNL",Specific Activity (previously characterized),[7],1.92 U mg^−1
